Measured values as given in US20110009283A1.
Changes are numbered by the printed parent chain. In names and notes the source's numbering stands. Several values for one entry are separate records, joined by “and”; a condition that tells them apart may be missing. Equal entries are not always repeated. Where two headings read alike, the source gives them in different places. Where no end group is shown, it is not given here.

Columns and labels:
KcsA, wild-type, P0A334 = biological target: T1, KcsA, wild-type, P0A334; experiment: phage panning of Shk / Camel VHH mixture on KcsA (n = 17-20)
T1 chain: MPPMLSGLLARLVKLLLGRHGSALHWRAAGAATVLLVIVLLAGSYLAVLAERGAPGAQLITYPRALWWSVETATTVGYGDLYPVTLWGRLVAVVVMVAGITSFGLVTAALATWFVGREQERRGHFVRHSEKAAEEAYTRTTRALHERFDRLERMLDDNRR

[1] = biological target: KcsA-Kv1.3 (KcsA carrying a segment of the Kv1.3 pore loop)
[2] = biological target: antiserum to sarafotoxin S6b
[3] = biological target: Homo Kv1.3 (Homo), P22001
[4] = biological target: T2, Mus BK (big conductance calcium-activated K channel) (Mus), Q08460
[5] = biological target: T3, Rattus Kv1.1 (Rattus), P10499
T3 chain: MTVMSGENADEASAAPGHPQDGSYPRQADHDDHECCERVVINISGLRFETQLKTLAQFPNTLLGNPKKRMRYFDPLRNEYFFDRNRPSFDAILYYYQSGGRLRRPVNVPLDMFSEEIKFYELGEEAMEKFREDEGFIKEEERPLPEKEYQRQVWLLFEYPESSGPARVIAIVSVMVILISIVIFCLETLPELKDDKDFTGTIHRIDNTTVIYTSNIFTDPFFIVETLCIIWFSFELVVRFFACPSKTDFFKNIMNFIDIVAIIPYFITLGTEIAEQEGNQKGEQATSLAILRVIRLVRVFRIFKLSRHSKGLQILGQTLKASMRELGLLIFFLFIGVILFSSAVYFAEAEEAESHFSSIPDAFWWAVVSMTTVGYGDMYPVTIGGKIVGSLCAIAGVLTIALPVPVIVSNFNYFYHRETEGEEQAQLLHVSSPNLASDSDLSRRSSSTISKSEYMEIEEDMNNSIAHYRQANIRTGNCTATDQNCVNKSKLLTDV

[6] = biological target: T4, Rattus Kv1.2 (Rattus), P63142
T4 chain: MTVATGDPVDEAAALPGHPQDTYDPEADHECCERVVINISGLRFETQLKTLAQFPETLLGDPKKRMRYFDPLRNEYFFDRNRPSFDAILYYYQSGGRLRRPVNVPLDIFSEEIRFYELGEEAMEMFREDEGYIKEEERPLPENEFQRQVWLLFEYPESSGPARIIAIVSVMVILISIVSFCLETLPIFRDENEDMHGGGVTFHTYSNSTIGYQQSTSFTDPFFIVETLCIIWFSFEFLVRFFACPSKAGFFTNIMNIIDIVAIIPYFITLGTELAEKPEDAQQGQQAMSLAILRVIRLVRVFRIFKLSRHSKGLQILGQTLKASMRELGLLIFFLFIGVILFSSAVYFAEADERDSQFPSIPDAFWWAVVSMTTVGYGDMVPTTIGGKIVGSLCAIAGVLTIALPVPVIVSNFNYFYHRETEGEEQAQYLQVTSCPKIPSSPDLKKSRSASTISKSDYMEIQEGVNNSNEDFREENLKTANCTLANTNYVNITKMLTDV

[7] = biological target: BK channel (species not stated); experiment: cell-based or functional assay
[8] = biological target: Kv1.1 K+ channel (species not stated); experiment: cell-based or functional assay
[9] = biological target: Kv1.2 K+ channel (species not stated); experiment: cell-based or functional assay
[10] = biological target: T5, Kv1.3 K+ channel, wild-type, expressed in cells (species not stated) (Homo sapiens (Human)), P22001; experiment: cell-based or functional assay
[11] = biological target: T5, Kv1.3 K+ channel, wild-type, expressed …
[12] = biological target: T5, Kv1.3 K+ channel, wild-type, expressed …; remark: listed apart in the source
[13] = biological target: T5, Kv1.3 K+ channel, wild-type, expressed …; experiment: one round of phage panning on mammalian cells expressing Kv1.3
[14] = biological target: T5, Kv1.3 K+ channel, wild-type, expressed …; experiment: panning of a 2:2:96 phage mixture on HEK cells expressing Kv1.3
[15] = biological target: T5, Kv1.3 K+ channel, wild-type, expressed …; experiment: phage panning on COS cells transfected with Kv1.3 vs vector; 5x10^11 phagemids
[16] = biological target: T5, Kv1.3 K+ channel, wild-type, expressed …; experiment: phage panning on HEK cells transfected with Kv1.3 vs vector; 5x10^11 phagemids
[17] = biological target: antiserum to sarafotoxin S6b; remark: listed apart in the source
[18] = biological target: Homo Kv1.3 (Homo), P22001; experiment: two-electrode voltage clamp, kinetics of block in Xenopus oocytes
[19] = biological target: T2, Mus BK (big conductance …); experiment: as above
[20] = biological target: T3, Rattus Kv1.1 (Rattus), P10499; experiment: as above
[21] = biological target: T4, Rattus Kv1.2 (Rattus), P63142; experiment: as above
[22] = biological target: T5, Kv1.3 K+ channel, wild-type, expressed …; remark: listed apart in the source

Chain of Homo Kv1.3 (Homo), P22001 (P22001 whole entry): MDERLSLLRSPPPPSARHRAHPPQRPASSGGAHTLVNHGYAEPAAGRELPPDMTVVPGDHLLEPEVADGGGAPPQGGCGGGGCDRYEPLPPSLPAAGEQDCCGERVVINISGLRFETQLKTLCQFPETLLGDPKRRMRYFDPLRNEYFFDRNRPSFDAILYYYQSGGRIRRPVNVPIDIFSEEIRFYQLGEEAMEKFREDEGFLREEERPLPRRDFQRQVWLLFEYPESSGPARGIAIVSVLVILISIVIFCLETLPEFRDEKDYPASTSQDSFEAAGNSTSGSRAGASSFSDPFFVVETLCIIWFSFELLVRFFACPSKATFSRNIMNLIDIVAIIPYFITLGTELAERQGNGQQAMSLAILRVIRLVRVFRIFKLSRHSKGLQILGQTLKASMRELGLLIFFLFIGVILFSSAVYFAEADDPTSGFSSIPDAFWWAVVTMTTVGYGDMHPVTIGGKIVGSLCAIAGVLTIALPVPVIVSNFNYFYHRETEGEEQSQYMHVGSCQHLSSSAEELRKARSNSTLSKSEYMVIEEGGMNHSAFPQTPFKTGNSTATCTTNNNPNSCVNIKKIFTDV
T5 sequence (P22001 whole entry): as above
T2 sequence (Q08460 whole entry): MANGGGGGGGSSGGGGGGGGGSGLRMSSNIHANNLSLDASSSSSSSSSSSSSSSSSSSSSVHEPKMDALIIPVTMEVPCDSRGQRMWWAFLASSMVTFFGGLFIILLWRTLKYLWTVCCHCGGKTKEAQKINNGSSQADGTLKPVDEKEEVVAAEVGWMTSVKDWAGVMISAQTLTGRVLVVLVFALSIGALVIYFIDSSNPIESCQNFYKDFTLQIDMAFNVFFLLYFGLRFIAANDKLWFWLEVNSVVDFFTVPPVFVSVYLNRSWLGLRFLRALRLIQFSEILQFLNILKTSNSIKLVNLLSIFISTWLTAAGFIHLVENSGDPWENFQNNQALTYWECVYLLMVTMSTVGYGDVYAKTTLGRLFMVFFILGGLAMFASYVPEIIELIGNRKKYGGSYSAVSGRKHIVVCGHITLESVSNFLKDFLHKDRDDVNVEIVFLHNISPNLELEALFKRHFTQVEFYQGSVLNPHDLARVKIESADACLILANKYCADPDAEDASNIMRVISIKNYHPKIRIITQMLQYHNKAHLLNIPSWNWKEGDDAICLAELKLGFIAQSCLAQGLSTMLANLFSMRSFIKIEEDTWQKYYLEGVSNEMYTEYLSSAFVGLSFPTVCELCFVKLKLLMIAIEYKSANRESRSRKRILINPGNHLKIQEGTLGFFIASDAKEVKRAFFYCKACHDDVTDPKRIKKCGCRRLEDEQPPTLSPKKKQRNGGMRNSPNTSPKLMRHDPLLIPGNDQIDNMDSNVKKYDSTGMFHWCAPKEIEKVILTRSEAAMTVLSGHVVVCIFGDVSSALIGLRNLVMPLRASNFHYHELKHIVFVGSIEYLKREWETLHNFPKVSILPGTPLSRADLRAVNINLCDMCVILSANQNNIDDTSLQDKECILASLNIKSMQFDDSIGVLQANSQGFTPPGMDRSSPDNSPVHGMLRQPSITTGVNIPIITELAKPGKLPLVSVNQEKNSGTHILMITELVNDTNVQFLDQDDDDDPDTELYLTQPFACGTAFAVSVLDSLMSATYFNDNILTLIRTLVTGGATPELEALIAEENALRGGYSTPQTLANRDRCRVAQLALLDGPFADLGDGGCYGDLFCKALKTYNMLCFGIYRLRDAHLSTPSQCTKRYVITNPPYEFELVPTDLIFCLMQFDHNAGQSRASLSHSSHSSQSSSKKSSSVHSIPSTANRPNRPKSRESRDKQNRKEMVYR

B1: Shk phage (sea anemone K+ channel toxin ShK on phage) (peptide)
chain: RSCIDTIPKSRCTAFQCKHSMKYRLSFCRKTCGTC
modifications: not checked
- % phages, OUTPUT (KcsA, wild-type, P0A334): 0%

B2: sarafotoxin S6b phage (peptide)
chain: CSCKDMTDKECLYFCHQDVIW
modifications: cysteine pairing not given here; also: displayed on phage via linker and coat protein
- Output (% Ligands) [1]: 0%
- Output (% Ligands) [2]: 100%

B3: Charybdotoxin (CTX) (peptide)
peptide: ZFTNVSCTTSKECWSVCQRLHNTSRGKCMNKKCRCYS
modifications: not checked
- Ki [3]: 0.9 nM
- Ki [4]: 5 nM
- Ki [5]: > 1000 nM
- Ki [6]: 9 nM
- approximate IC50 (nM) of channel block [7]: 3 nM
- approximate IC50 (nM) of channel block [8]: 1500 nM
- approximate IC50 (nM) of channel block [9]: 5.6 nM
- approximate IC50 (nM) of channel block [10]: 2.5 nM

B4: Kaliotoxin-1 phage (KTX-phage) (peptide)
chain: GVEINVKCSGSPQCLKPCKDAGMRFGKCMNRKCHCTPK
modifications: not checked
- output KTX (%) [11]: 22% and 30% and 26%
- % of recovered phage, 2nd round [12]: 0%
- % of recovered phage, 3rd round [12]: 58%
- block of Kv1.3 currents, whole-cell patch-clamp in HEK293 cells, 1 nM KTX-phage [10]: 35%
- time to half reversal of inhibition on washing [10]: 20 min
- Fold Enrichment [13]: 4.3 fold and 5.2 fold
- % of phages after the 2nd panning [14]: 40%
- fold enrichment (Kv1.3-transfected vs vector cells) [15]: 10 fold
- fold enrichment (Kv1.3-transfected vs vector cells) [16]: 20 fold
- Output (% Ligands) [17]: 0%

B5: Kaliotoxin-1 (KTX) (peptide)
peptide: B4 chain
modifications: not checked
- Ki [3]: 0.008 nM
- Ki [4]: 1.6 nM
- Ki [5]: 1.1 nM
- Ki [6]: 20 nM
- approximate IC50 (nM) of channel block [7]: 5 nM
- approximate IC50 (nM) of channel block [8]: 0.1 nM
- approximate IC50 (nM) of channel block [9]: 1.4 nM
- approximate IC50 (nM) of channel block [10]: 0.5 nM
- koff [18]: 0.007 s⁻¹
- kon [18]: 8e+08 M⁻¹ s⁻¹
- koff [19]: 0.0211 s⁻¹
- kon [19]: 21000 M⁻¹ s⁻¹
- koff [20]: 0.009 s⁻¹
- kon [20]: 3e+07 M⁻¹ s⁻¹
- koff [21]: 0.21 s⁻¹
- kon [21]: 1.3e+07 M⁻¹ s⁻¹

B6: Agitoxin-2 (AgTx2) (peptide)
peptide: B4 chain with E3P, K7S, S9T, L15I
modifications: not checked
- Ki [3]: 0.041 nM
- Ki [5]: 0.17 nM
- Ki [6]: 3.4 nM
- approximate IC50 (nM) of channel block [7]: 1150 nM
- approximate IC50 (nM) of channel block [8]: 0.04 nM
- approximate IC50 (nM) of channel block [9]: 26.8 nM
- approximate IC50 (nM) of channel block [10]: 0.004 nM

B7: DDD-KTX-phage (inactive kaliotoxin-1, R24D, K27D, R31D, on phage) (peptide)
chain: B4 chain with R24D, K27D, R31D
modifications: not checked
- # of genotype, Test [22]: 2 colonies
- % of genotype, Test [22]: 10%
- % of recovered phage, 2nd round [12]: 100%
- % of recovered phage, 3rd round [12]: 42%
